Data from patent US20180155451A1 (published 2018).

T1: FcγRIIb extracellular domain with C-terminal His tag (human, UniProt P31994 43-217)
T1 construct: extracellular domain; also called FcgRIIb; 2b; not shown: His tag at the C terminus
T1 sequence (looked up): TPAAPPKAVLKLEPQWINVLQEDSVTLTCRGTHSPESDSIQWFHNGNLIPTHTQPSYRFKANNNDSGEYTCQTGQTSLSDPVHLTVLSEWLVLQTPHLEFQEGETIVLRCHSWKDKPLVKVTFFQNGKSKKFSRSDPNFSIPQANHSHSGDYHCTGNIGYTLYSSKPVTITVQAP

B1: GpH7-B3 variant (H268_09D)/GpL16-k0 (antibody, human IgG1, kappa)
heavy: not shown
light: DIVMTQSPLSLPVTPGEPASISCQASESLVHSNRNTYLHWYLQKPGQSPQLLIYKVSNRFSGVPDRFSGSGSGTDFTLKISRVEAEDVGVYYCSQNTHVPPTFGQGTKVEIERTVAAPSVFIFPPSDEQLKSGTASVVCLLNNFYPREAKVQWKVDNALQSGNSQESVTEQDSKDSTYSLSSTLTLSKADYEKHKVYACEVTHQGLSSPVTKSFNRGEC
notes: Homodimerized; both H chains altered; also called Ho Ab H268_09D
B2: GpH7-B3 variant (S337_07I)/GpL16-k0 (antibody, human IgG1, kappa)
heavy: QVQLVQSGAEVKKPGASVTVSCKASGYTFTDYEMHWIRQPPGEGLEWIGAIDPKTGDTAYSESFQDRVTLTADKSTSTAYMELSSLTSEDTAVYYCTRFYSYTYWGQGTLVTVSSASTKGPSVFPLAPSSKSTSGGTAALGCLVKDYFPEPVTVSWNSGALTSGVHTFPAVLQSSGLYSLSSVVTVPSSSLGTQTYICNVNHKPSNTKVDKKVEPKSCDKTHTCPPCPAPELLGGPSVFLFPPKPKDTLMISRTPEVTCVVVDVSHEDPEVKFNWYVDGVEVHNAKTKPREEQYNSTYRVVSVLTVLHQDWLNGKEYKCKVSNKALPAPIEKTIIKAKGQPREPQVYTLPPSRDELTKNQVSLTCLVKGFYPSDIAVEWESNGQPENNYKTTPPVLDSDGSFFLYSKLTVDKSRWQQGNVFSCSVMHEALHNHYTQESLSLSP
light: B1 light
notes: Homodimerized; both H chains altered; also called Ho Ab S337_07I
B3: GpH7-B3 variant (T335_12R)/GpL16-k0 (antibody, human IgG1, kappa)
heavy: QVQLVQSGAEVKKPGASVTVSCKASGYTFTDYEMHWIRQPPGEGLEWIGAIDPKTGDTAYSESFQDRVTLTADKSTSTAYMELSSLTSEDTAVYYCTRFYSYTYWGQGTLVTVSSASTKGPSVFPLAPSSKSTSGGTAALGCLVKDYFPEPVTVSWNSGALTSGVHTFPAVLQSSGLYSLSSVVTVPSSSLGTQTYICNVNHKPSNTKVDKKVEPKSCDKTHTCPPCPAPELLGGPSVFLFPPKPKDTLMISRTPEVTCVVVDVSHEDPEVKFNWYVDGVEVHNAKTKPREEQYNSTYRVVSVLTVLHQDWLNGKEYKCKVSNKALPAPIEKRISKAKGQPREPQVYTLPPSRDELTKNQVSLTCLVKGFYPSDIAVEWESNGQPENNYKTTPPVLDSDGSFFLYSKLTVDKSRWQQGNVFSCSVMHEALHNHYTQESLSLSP
light: B1 light
notes: Homodimerized; both H chains altered; also called Ho Ab T335_12R
B4: GpH7-B3 variant (T335_11K)/GpL16-k0 (antibody, human IgG1, kappa)
heavy: not shown
light: B1 light
notes: Homodimerized; both H chains altered; also called Ho Ab T335_11K
B5: GpH7-B3 variant (D265_10E)/GpL16-k0 (antibody, human IgG1, kappa)
heavy: not shown
light: B1 light
notes: Homodimerized; both H chains altered; also called Ho Ab D265_10E
B6: GpH7-B3 variant (I336_12R)/GpL16-k0 (antibody, human IgG1, kappa)
heavy: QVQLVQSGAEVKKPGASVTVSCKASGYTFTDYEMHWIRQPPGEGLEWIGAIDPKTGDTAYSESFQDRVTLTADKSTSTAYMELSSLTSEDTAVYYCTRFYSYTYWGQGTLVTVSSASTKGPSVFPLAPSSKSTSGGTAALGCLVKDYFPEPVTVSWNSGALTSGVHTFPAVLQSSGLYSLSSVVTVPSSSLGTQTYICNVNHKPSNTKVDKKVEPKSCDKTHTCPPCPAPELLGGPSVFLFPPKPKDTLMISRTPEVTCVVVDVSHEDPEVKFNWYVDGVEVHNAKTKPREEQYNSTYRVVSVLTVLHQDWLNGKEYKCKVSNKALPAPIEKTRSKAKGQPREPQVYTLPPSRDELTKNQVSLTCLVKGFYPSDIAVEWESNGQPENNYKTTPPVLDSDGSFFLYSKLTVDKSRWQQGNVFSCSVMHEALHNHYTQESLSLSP
light: B1 light
notes: Homodimerized; both H chains altered; also called Ho Ab I336_12R
B7: GpH7-B3 variant (T335_10E)/GpL16-k0 (antibody, human IgG1, kappa)
heavy: not shown
light: B1 light
notes: Homodimerized; both H chains altered; also called Ho Ab T335_10E
B8: GpH7-B3 variant (I336_14T)/GpL16-k0 (antibody, human IgG1, kappa)
heavy: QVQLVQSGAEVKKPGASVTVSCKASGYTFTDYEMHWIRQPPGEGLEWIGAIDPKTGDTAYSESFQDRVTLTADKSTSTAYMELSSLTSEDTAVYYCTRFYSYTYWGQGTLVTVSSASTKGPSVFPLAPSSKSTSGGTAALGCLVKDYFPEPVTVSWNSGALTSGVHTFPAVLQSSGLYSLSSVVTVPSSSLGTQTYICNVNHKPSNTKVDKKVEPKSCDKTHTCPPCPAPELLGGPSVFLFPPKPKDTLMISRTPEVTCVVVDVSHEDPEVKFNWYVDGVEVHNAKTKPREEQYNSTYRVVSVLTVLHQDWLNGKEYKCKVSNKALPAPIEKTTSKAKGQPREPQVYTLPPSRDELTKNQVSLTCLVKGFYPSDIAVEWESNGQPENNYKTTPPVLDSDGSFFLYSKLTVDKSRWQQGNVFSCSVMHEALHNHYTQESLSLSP
light: B1 light
notes: Homodimerized; both H chains altered; also called Ho Ab I336_14T
B9: GpH7-B3 variant (A330_20W)/GpL16-k0 (antibody, human IgG1, kappa)
heavy: not shown
light: B1 light
notes: Homodimerized; both H chains altered; also called Ho Ab A330_20W
B10: GpH7-B3 variant (Y296_16H)/GpL16-k0 (antibody, human IgG1, kappa)
heavy: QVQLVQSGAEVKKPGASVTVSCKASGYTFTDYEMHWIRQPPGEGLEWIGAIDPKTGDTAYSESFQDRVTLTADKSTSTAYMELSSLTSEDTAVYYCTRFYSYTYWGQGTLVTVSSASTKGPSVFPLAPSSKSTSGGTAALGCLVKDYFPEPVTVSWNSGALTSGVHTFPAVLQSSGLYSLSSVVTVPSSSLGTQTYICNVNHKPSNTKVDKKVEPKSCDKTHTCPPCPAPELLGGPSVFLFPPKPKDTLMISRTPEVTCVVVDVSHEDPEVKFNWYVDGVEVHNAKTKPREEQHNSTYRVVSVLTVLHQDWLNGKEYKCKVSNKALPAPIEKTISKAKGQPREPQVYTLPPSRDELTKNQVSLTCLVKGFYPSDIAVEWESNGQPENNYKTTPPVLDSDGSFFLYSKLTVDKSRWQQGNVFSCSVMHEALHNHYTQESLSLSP
light: B1 light
notes: Homodimerized; both H chains altered; also called Ho Ab Y296_16H
B11: GpH7-B3 variant (T335_19Q)/GpL16-k0 (antibody, human IgG1, kappa)
heavy: not shown
light: B1 light
notes: Homodimerized; both H chains altered; also called Ho Ab T335_19Q
B12: GpH7-B3 variant (S337_19Q)/GpL16-k0 (antibody, human IgG1, kappa)
heavy: not shown
light: B1 light
notes: Homodimerized; both H chains altered; also called Ho Ab S337_19Q
B13: GpH7-B3 variant (I336_08L)/GpL16-k0 (antibody, human IgG1, kappa)
heavy: not shown
light: B1 light
notes: Homodimerized; both H chains altered; also called Ho Ab I336_08L
B14: GpH7-B3 variant (T335_18N)/GpL16-k0 (antibody, human IgG1, kappa)
heavy: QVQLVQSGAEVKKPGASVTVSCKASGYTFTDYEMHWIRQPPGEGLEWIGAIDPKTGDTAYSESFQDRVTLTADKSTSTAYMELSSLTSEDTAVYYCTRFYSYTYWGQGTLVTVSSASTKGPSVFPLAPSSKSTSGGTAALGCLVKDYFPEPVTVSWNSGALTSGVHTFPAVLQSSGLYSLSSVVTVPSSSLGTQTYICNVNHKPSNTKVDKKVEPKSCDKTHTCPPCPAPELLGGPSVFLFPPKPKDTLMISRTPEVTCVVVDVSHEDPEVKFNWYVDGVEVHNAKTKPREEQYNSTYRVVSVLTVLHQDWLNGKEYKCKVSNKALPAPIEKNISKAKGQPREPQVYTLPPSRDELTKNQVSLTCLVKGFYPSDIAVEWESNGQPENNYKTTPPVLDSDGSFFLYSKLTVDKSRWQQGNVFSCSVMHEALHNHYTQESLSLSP
light: B1 light
notes: Homodimerized; both H chains altered; also called Ho Ab T335_18N
B15: GpH7-B3 variant (I336_11K)/GpL16-k0 (antibody, human IgG1, kappa)
heavy: not shown
light: B1 light
notes: Homodimerized; both H chains altered; also called Ho Ab I336_11K
B16: GpH7-B3 variant (Y296_20W)/GpL16-k0 (antibody, human IgG1, kappa)
heavy: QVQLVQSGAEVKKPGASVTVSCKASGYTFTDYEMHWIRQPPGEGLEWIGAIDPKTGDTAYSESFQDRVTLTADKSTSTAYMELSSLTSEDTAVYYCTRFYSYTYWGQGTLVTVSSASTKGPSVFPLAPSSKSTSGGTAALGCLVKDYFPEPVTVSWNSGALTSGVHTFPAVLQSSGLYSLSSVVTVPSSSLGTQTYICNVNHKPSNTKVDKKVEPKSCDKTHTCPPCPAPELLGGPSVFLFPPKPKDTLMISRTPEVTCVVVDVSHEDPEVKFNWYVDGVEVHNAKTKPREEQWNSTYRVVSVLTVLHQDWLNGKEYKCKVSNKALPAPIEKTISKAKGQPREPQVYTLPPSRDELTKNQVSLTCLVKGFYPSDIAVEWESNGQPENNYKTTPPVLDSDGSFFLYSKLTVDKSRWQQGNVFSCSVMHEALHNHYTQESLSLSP
light: B1 light
notes: Homodimerized; both H chains altered; also called Ho Ab Y296_20W
B17: GpH7-B3 variant (Y300_06M)/GpL16-k0 (antibody, human IgG1, kappa)
heavy: not shown
light: B1 light
notes: Homodimerized; both H chains altered; also called Ho Ab Y300_06M
B18: GpH7-B3 variant (S337_20W)/GpL16-k0 (antibody, human IgG1, kappa)
heavy: not shown
light: B1 light
notes: Homodimerized; both H chains altered; also called Ho Ab S337_20W
B19: GpH7-B3 variant (S337_08L)/GpL16-k0 (antibody, human IgG1, kappa)
heavy: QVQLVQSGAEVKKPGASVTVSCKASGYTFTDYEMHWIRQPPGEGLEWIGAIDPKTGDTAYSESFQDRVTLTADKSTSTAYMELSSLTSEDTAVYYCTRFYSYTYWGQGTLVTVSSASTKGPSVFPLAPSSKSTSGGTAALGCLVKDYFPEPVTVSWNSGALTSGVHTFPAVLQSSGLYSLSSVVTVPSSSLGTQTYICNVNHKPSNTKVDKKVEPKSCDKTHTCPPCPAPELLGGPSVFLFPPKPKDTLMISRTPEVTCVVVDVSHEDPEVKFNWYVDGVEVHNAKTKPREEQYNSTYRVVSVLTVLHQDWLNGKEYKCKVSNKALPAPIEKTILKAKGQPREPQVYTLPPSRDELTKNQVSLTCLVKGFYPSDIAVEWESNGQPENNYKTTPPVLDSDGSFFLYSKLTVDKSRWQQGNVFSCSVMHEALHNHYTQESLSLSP
light: B1 light
notes: Homodimerized; both H chains altered; also called Ho Ab S337_08L
B20: GpH7-B3 variant (T335_05P)/GpL16-k0 (antibody, human IgG1, kappa)
heavy: not shown
light: B1 light
notes: Homodimerized; both H chains altered; also called Ho Ab T335_05P
B21: GpH7-B3 variant (S337_06M)/GpL16-k0 (antibody, human IgG1, kappa)
heavy: not shown
light: B1 light
notes: Homodimerized; both H chains altered; also called Ho Ab S337_06M
B22: GpH7-B3 variant (S337_15Y)/GpL16-k0 (antibody, human IgG1, kappa)
heavy: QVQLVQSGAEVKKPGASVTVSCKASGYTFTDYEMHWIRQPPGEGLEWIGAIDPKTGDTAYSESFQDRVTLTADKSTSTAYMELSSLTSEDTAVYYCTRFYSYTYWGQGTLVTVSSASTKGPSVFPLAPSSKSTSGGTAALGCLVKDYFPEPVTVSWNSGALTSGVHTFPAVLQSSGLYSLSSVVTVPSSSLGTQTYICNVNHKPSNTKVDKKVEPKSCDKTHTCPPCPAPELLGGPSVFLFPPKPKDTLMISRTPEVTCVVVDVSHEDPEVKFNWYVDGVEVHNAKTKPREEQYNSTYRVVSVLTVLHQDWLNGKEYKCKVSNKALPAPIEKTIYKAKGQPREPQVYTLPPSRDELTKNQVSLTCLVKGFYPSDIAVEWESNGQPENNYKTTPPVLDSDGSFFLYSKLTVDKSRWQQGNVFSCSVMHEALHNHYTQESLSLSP
light: B1 light
notes: Homodimerized; both H chains altered; also called Ho Ab S337_15Y
B23: GpH7-B3 variant (Y296_11K)/GpL16-k0 (antibody, human IgG1, kappa)
heavy: not shown
light: B1 light
notes: Homodimerized; both H chains altered; also called Ho Ab Y296_11K
B24: GpH7-B3 variant (I336_13S)/GpL16-k0 (antibody, human IgG1, kappa)
heavy: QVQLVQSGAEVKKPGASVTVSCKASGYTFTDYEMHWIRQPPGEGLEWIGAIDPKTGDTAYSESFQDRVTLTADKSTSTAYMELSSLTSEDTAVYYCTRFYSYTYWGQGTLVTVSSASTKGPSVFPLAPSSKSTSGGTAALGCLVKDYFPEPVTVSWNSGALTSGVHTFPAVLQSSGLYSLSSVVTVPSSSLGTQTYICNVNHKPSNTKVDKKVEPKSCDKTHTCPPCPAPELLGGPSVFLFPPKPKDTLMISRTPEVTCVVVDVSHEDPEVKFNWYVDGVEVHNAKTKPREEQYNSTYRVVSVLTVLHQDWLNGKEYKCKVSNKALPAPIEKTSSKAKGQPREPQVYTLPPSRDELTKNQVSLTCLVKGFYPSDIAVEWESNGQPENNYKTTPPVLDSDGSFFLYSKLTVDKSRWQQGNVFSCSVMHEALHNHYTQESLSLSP
light: B1 light
notes: Homodimerized; both H chains altered; also called Ho Ab I336_13S
B25: GpH7-A5/GpH7-B3 variant S267_10E/GpL16-k0 (heterodimerized antibody, He Ab) (antibody, human IgG1, kappa)
heavy 1: not shown
heavy 2: not shown
light: B1 light
notes: Anti-glypican-3 IgG1; the alteration is in the GpH7-B3 chain only; also called S267E
B26: GpH7-A5/GpH7-B3 variant V266_06M/GpL16-k0 (heterodimerized antibody, He Ab) (antibody, human IgG1, kappa)
heavy 1: not shown
heavy 2: not shown
light: B1 light
notes: Anti-glypican-3 IgG1; the alteration is in the GpH7-B3 chain only; also called V266M

target: T2, FcγRIa extracellular domain with C-terminal His tag (human, UniProt P12314 16-292); experiment: SPR (Biacore), captured antibody, FcγRIa analyte; relative to GpH7-B3/GpL16-k0 = 100
T2 construct: extracellular domain; Expressed in FreeStyle293 cells; used as analyte in Biacore; also called FcgRI; 1a; not shown: His tag at the C terminus
T2 sequence (P12314 16-292): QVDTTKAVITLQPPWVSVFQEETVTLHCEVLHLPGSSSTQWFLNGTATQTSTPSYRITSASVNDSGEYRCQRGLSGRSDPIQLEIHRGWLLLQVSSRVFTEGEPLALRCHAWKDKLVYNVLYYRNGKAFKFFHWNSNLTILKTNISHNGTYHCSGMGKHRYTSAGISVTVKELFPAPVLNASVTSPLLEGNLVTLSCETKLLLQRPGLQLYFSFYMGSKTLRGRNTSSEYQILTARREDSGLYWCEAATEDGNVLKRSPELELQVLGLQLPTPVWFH

Binder	Ho/Con_1a
B1	110 % of control
B2	105 % of control
B3	106 % of control
B4	103 % of control
B5	103 % of control
B6	109 % of control
B7	108 % of control
B8	111 % of control
B9	108 % of control
B10	105 % of control
B11	105 % of control
B12	105 % of control
B13	109 % of control
B14	102 % of control
B15	107 % of control
B16	106 % of control
B17	111 % of control
B18	104 % of control
B19	105 % of control
B20	106 % of control
B21	102 % of control
B22	104 % of control
B23	102 % of control
B24	110 % of control

target: T1, FcγRIIb extracellular domain with …; experiment: SPR (Biacore), captured antibody, FcγR as analyte; relative to GpH7-A5/GpH7-B3/GpL16-k0 = 100
Description: (§1) Analysis of interaction between objective antibody and the FcγR was carried out using Biacore T100 (GE Healthcare). HBS-EP+ (GE Healthcare) was used as the running buffer, and the measurement temperature was set to 25° C. Chips produced by immobilizing the antigen peptide by the amine coupling method to a Series S Sencor Chip CM5 (GE Healthcare), or alternatively, chips produced by allowing preliminarily biotinylated antigen peptides to interact with and immobilize onto a Series S Sensor Chip SA (certified) (GE Healthcare) were used. Antibodies of interest were captured onto an antigen peptide-immobilized chip, and allowed to interact to each FcγR diluted with running buffer. To regenerate and repeatedly use the chip, the antibodies captured on the chip were washed off by reacting 10 mM glycine-HCl, pH 1.5.
(§2) The FcγR-binding activity of each antibody was assessed primarily using as an indicator the FcγR-binding activity and dissociation constant for FcγR.

Binder	He/Con_2b (IIb binding)
B25	379 % of HeCon Ab
B26	251 % of HeCon Ab

target: T3, FcγRIIIa extracellular domain with C-terminal His tag (human, UniProt P08637 17-208); experiment: as above
T3 construct: extracellular domain; also called FcgRIIIa; 3a; not shown: His tag at the C terminus
Description: as §1, §2

T3 sequence (P08637 17-208): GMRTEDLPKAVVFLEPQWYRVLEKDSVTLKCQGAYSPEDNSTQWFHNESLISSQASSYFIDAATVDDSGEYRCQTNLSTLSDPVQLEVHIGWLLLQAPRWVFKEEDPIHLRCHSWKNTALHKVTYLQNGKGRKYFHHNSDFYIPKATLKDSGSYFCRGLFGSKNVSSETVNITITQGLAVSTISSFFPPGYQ

Binder	He/Con_3a (IIIa binding)
B25	91.9 % of HeCon Ab
B26	85.8 % of HeCon Ab
